Measurements: the supplement of paper PMC9112550, “Optimization of the antimicrobial peptide Bac7 by deep mutational scanning” (BMC Biology, 2022)

System: Escherichia coli TOP10
Experiment: shrunken log2 fold change of peptide-encoding DNA abundance (4.5 h post-induction vs induction); higher = less antimicrobial activity (less host growth inhibition)
Conditions: time post-induction: 4.5 h; library: site-saturation at positions 5, 18, 19, 20
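Also: peptides expressed intracellularly from a pBAD plasmid library in pooled LB shake-flask culture, induced with 0.3% L-arabinose, DNA abundance read by NGS, three biological replicates, DESeq2 with apeglm shrinkage.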

Sequence	shrunken log2 fold change
RRIRQRPPRLPRPRPRPMKPPRP	-0.0268
RRIRQRPPRLPRPRPRPMLHPRP	-0.0433
RRIRQRPPRLPRPRPRPMMPPRP	0.0665
RRIRQRPPRLPRPRPRPMMRPRP	0.109
RRIRQRPPRLPRPRPRPMNQPRP	-0.437
RRIRQRPPRLPRPRPRPMPEPRP	-0.237
RRIRQRPPRLPRPRPRPMPQPRP	0.00445
RRIRQRPPRLPRPRPRPMPYPRP	-0.0574
RRIRQRPPRLPRPRPRPMRPPRP	0.968
RRIRQRPPRLPRPRPRPMVAPRP	0.143
RRIRQRPPRLPRPRPRPMVDPRP	-0.00399
RRIRQRPPRLPRPRPRPMVYPRP	0.017
RRIRQRPPRLPRPRPRPMWIPRP	-0.146
RRIRQRPPRLPRPRPRPMWYPRP	-0.298
RRIRQRPPRLPRPRPRPNCNPRP	-0.882
RRIRQRPPRLPRPRPRPNDCPRP	0.0531
RRIRQRPPRLPRPRPRPNDMPRP	-0.296
RRIRQRPPRLPRPRPRPNDNPRP	-0.577
RRIRQRPPRLPRPRPRPNDPPRP	-0.0265
RRIRQRPPRLPRPRPRPNDSPRP	-0.449
RRIRQRPPRLPRPRPRPNECPRP	0.033
RRIRQRPPRLPRPRPRPNEDPRP	0.031
RRIRQRPPRLPRPRPRPNEKPRP	-0.0522
RRIRQRPPRLPRPRPRPNEPPRP	-0.0605
RRIRQRPPRLPRPRPRPNEWPRP	-0.00822

Sequence	shrunken log2 fold change
RRIRQRPPRLPRPRPRPNFWPRP	-0.00668
RRIRQRPPRLPRPRPRPNGPPRP	-0.011
RRIRQRPPRLPRPRPRPNGQPRP	-0.262
RRIRQRPPRLPRPRPRPNHGPRP	-0.00507
RRIRQRPPRLPRPRPRPNHHPRP	-0.864
RRIRQRPPRLPRPRPRPNHWPRP	-0.176
RRIRQRPPRLPRPRPRPNICPRP	0.0129
RRIRQRPPRLPRPRPRPNIIPRP	-0.247
RRIRQRPPRLPRPRPRPNKPPRP	-0.195
RRIRQRPPRLPRPRPRPNLMPRP	-0.196
RRIRQRPPRLPRPRPRPNLQPRP	0.0864
RRIRQRPPRLPRPRPRPNNNPRP	-0.825
RRIRQRPPRLPRPRPRPNNRPRP	-0.686
RRIRQRPPRLPRPRPRPNPKPRP	-0.00731
RRIRQRPPRLPRPRPRPNTDPRP	-0.166
RRIRQRPPRLPRPRPRPNTEPRP	-0.0119
RRIRQRPPRLPRPRPRPNTIPRP	0.0518
RRIRQRPPRLPRPRPRPNVGPRP	-0.0447
RRIRQRPPRLPRPRPRPNVKPRP	0.0117
RRIRQRPPRLPRPRPRPNWKPRP	0.135
RRIRQRPPRLPRPRPRPNWLPRP	0.259
RRIRQRPPRLPRPRPRPNWPPRP	0.192
RRIRQRPPRLPRPRPRPNWYPRP	-0.0479
RRIRQRPPRLPRPRPRPNYPPRP	-0.239
RRIRQRPPRLPRPRPRPPAQPRP	0.0181

Sequence	shrunken log2 fold change
RRIRQRPPRLPRPRPRPPASPRP	0.191
RRIRQRPPRLPRPRPRPPCAPRP	0.293
RRIRQRPPRLPRPRPRPPCEPRP	-0.00701
RRIRQRPPRLPRPRPRPPCQPRP	0.0396
RRIRQRPPRLPRPRPRPPCSPRP	0.219
RRIRQRPPRLPRPRPRPPDRPRP	0.0477
RRIRQRPPRLPRPRPRPPEKPRP	0.917
RRIRQRPPRLPRPRPRPPEPPRP	0.834
RRIRQRPPRLPRPRPRPPFRPRP	0.14
RRIRQRPPRLPRPRPRPPHSPRP	0.511
RRIRQRPPRLPRPRPRPPHWPRP	0.641
RRIRQRPPRLPRPRPRPPLCPRP	0.28
RRIRQRPPRLPRPRPRPPMEPRP	-0.22
RRIRQRPPRLPRPRPRPPNMPRP	-0.089
RRIRQRPPRLPRPRPRPPNNPRP	-0.259
RRIRQRPPRLPRPRPRPPNVPRP	-0.0755
RRIRQRPPRLPRPRPRPPNYPRP	0.195
RRIRQRPPRLPRPRPRPPPIPRP	0.467
RRIRQRPPRLPRPRPRPPPLPRP	0.977
RRIRQRPPRLPRPRPRPPQFPRP	0.076
RRIRQRPPRLPRPRPRPPQLPRP	0.424
RRIRQRPPRLPRPRPRPPRKPRP	0.835
RRIRQRPPRLPRPRPRPPRPPRP	0.752
RRIRQRPPRLPRPRPRPPSQPRP	0.0863
RRIRQRPPRLPRPRPRPPTCPRP	0.224

Sequence	shrunken log2 fold change
RRIRQRPPRLPRPRPRPPTRPRP	0.398
RRIRQRPPRLPRPRPRPPVGPRP	0.119
RRIRQRPPRLPRPRPRPPVLPRP	0.155
RRIRQRPPRLPRPRPRPPVMPRP	-0.285
RRIRQRPPRLPRPRPRPPWFPRP	-0.018
RRIRQRPPRLPRPRPRPPWRPRP	0.619
RRIRQRPPRLPRPRPRPPYLPRP	-0.289
RRIRQRPPRLPRPRPRPQEFPRP	-0.0104
RRIRQRPPRLPRPRPRPQGEPRP	-0.154
RRIRQRPPRLPRPRPRPQHDPRP	-0.477
RRIRQRPPRLPRPRPRPQHHPRP	-0.527
RRIRQRPPRLPRPRPRPQHTPRP	-0.69
RRIRQRPPRLPRPRPRPQKHPRP	-0.324
RRIRQRPPRLPRPRPRPQLAPRP	0.0428
RRIRQRPPRLPRPRPRPQLGPRP	-0.194
RRIRQRPPRLPRPRPRPQMYPRP	-0.0131
RRIRQRPPRLPRPRPRPQPAPRP	0.218
RRIRQRPPRLPRPRPRPQPGPRP	0.0446
RRIRQRPPRLPRPRPRPQPVPRP	0.00167
RRIRQRPPRLPRPRPRPQRDPRP	0.0969
RRIRQRPPRLPRPRPRPQRKPRP	-0.058
RRIRQRPPRLPRPRPRPQRRPRP	0.0498
RRIRQRPPRLPRPRPRPQTPPRP	0.0705
RRIRQRPPRLPRPRPRPQTRPRP	-0.0472
RRIRQRPPRLPRPRPRPQVQPRP	-0.00173

Sequence	shrunken log2 fold change
RRIRQRPPRLPRPRPRPQWGPRP	-0.161
RRIRQRPPRLPRPRPRPQWHPRP	-0.0165
RRIRQRPPRLPRPRPRPQWQPRP	0.16
RRIRQRPPRLPRPRPRPQWYPRP	-0.0123
RRIRQRPPRLPRPRPRPQYGPRP	-0.0763
RRIRQRPPRLPRPRPRPREDPRP	0.242
RRIRQRPPRLPRPRPRPREVPRP	4.11
RRIRQRPPRLPRPRPRPREYPRP	-0.0403
RRIRQRPPRLPRPRPRPRGRPRP	0.256
RRIRQRPPRLPRPRPRPRGTPRP	0.313
RRIRQRPPRLPRPRPRPRHLPRP	-0.33
RRIRQRPPRLPRPRPRPRHYPRP	-0.191
RRIRQRPPRLPRPRPRPRIVPRP	0.01
RRIRQRPPRLPRPRPRPRKSPRP	-0.172
RRIRQRPPRLPRPRPRPRLTPRP	0.178
RRIRQRPPRLPRPRPRPRNIPRP	-0.0833
RRIRQRPPRLPRPRPRPRNKPRP	-0.68
RRIRQRPPRLPRPRPRPRPHPRP	0.483
RRIRQRPPRLPRPRPRPRPTPRP	0.554
RRIRQRPPRLPRPRPRPRPVPRP	0.336
RRIRQRPPRLPRPRPRPRRKPRP	0.192
RRIRQRPPRLPRPRPRPRSDPRP	-0.208
RRIRQRPPRLPRPRPRPRSSPRP	0.0377
RRIRQRPPRLPRPRPRPRSVPRP	0.235
RRIRQRPPRLPRPRPRPRTTPRP	0.218

Sequence	shrunken log2 fold change
RRIRQRPPRLPRPRPRPRVFPRP	-0.0984
RRIRQRPPRLPRPRPRPRVHPRP	-0.163
RRIRQRPPRLPRPRPRPRVIPRP	0.113
RRIRQRPPRLPRPRPRPRVQPRP	0.527
RRIRQRPPRLPRPRPRPRWAPRP	0.144
RRIRQRPPRLPRPRPRPRWLPRP	0.453
RRIRQRPPRLPRPRPRPSADPRP	0.354
RRIRQRPPRLPRPRPRPSAGPRP	0.0717
RRIRQRPPRLPRPRPRPSDEPRP	-0.275
RRIRQRPPRLPRPRPRPSEHPRP	-0.195
RRIRQRPPRLPRPRPRPSFEPRP	-0.213
RRIRQRPPRLPRPRPRPSFHPRP	-0.351
RRIRQRPPRLPRPRPRPSFWPRP	0.0712
RRIRQRPPRLPRPRPRPSGTPRP	0.0732
RRIRQRPPRLPRPRPRPSGYPRP	-0.0295
RRIRQRPPRLPRPRPRPSHHPRP	0.0184
RRIRQRPPRLPRPRPRPSHKPRP	-0.0927
RRIRQRPPRLPRPRPRPSILPRP	-0.177
RRIRQRPPRLPRPRPRPSINPRP	-0.806
RRIRQRPPRLPRPRPRPSKPPRP	-0.231
RRIRQRPPRLPRPRPRPSLHPRP	-0.64
RRIRQRPPRLPRPRPRPSLYPRP	-0.233
RRIRQRPPRLPRPRPRPSMDPRP	-0.271
RRIRQRPPRLPRPRPRPSMGPRP	-0.163
RRIRQRPPRLPRPRPRPSNPPRP	0.0169
